Experimental data as given in patent US8012695B2, “Methods and compositions relating to promoter regulation by MUC1 and KLF proteins” (Dana-Farber Cancer Institute, Inc., priority 2007, dated 2011).
Blank lines part the entries; values can stand above or below the molecule they belong to. Ends that are not written are not given here.

Experiments:
KLF4 = target: T1, KLF4 (Homo sapiens, UniProt O43474); test: GST pull-down assay with 35S-labeled KLF4; format: binding; conditions: adsorbates to glutathione beads, 2 h at 4° C., autoradiography
T1 construct: host or cells: rabbit reticulocyte lysate, cell-free transcription/translation
T1 sequence (O43474 10-513 limits assumed): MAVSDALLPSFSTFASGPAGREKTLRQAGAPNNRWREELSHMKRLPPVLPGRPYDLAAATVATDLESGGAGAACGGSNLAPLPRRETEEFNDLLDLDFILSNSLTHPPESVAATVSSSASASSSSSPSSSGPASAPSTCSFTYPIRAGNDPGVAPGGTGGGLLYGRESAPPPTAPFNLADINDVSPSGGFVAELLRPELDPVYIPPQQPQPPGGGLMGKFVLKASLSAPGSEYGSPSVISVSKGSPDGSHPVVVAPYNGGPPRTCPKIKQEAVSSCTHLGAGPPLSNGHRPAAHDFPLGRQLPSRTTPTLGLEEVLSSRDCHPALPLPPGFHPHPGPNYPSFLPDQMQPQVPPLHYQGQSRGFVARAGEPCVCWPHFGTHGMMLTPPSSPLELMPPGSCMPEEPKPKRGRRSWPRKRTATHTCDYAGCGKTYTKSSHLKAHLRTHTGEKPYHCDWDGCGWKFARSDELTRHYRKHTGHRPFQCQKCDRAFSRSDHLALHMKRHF
Method: FIG. 3D is a pair of photographs of (a) an autoradiogram and (b) a Coomassie blue stained polyacrylamide gel. GST, GST-MUC1-CD(1-72), GST-MUC1-CD(47-72), or GST-MUC1-CD(1-46) were bound to glutathione-conjugated agarose beads and incubated with [^35S]-labeled KLF4 protein. The beads were washed to remove unbound KLF4 protein. The remaining adsorbates were analyzed by SDS-PAGE and autoradiography (top photograph). Input KLF4 protein is shown in the first lane of the top photograph. Input of the GST and GST-MUC1-CD fusion proteins was assessed by Coomassie blue staining. The molecular weights of the proteins (expressed in kilodaltons (kDa)) are indicated at the left of each of the photographs.
GST pull-down assays. GST and GST fusion proteins were purified by binding to glutathione-agarose beads (Sigma). ^35S-labeled KLF4, prepared in rabbit reticulocyte lysate transcription/translation (TNT) reactions (Promega Corporation), was incubated with GST or the GST fusion proteins for 2 h at 4° C. After washing, the adsorbed proteins were resolved by SDS-PAGE and analyzed by autoradiography.
To determine if MUC1-C occupies the PE21 region with KLF4, Re-ChIP assays were performed using anti-MUC1-C and anti-KLF4 antibodies. […] Moreover, DNA damage had little if any effect on this interaction (FIG. 7B). […]

p53 promoter [1] = test: p53 promoter-Luc reporter assay in MCF-7 cells; format: cell-based, human; conditions: −2400-p53-Luc, 0.5 μg MUC1-CD, increasing amounts of KLF4
Method: FIG. 4B is a pair of bar graphs. MCF-7 (left bar graph) or ZR-75-1 (right bar graph) cells were transfected with the −2400-p53-Luc reporter, the indicated amounts (0, 0.5, or 1 μg) of KLF4, 0.5 μg MUC1-CD and an internal control LacZ expression plasmid (pCMV-LacZ). At 40 hours after transfection, the cells were assayed for luciferase activity (as described above). The Y-axis represents the relative luciferase activity expressed as the fold activation (mean±SD of 3 separate experiments) compared to that obtained with empty vector-transfected cells (assigned a value of 1).
Transfection and reporter assays. Transfections were performed in 60 mm dishes using Fugene-6 (Roche Applied Science) or, for the luciferase assays, in 24 well plates using the calcium phosphate method (Invitrogen). Cells were transfected with the −2400-p53-Luc reporter, −2400-PE21-MUT-Luc reporter, −320-p53-Luc reporter, −320-PE21-MUT-Luc reporter (Rowland et al. (2005) Nat. Cell Biol. 7: 1074-1082) and an internal control LacZ expression plasmid (pCMV-LacZ) (Wei et al. (2001) J. Biol. Chem. 276: 16107-16112). Luciferase assays were performed with the Luciferase Assay System (Promega Corporation, Madison, Wis.) at 40 hours after transfection. Luciferase activity was normalized to that obtained for LacZ and presented as relative luciferase activity. […]

[2] = test system: ZR-75-1 breast cancer cells; test: Immunoblot analysis of p53 in ZR-75-1 cells; format: cell-based, human; conditions: ZR-75-1/MUC1siRNA cells transfected with pCMV-MUC1-CD, 24 hours
Method: Cell culture. […] Human ZR-75-1 breast cancer cells and those stably infected with a control siRNA (ZR-75-1/CsiRNA) or one expressing a MUC1siRNA (ZR-75-1/MUC1siRNA) (Wei et al. (2006) Mol. Cell. 21: 295-305) were cultured in RPMI 1640 medium supplemented with 10% HI-FBS, 100 μg/ml streptomycin, 100 units/ml penicillin, and 2 mM L-glutamine.
Immunoblotting. […] Immunoblot analysis was performed with anti-p53 (Ab-2, Ab-6; Oncogene Research Products), anti-MUC1-C (Ab-5; Neomarkers, Freemont, Calif.), anti-KLF4 (H-180; Santa Cruz Biotechnology), anti-β-actin (Sigma), anti-IκBα (Santa Cruz Biotechnology), or anti-PCNA (F-2; Santa Cruz Biotechnology) antibodies. Whole cell lysates were also, prior to analysis by immunoblotting, first subjected to immunoprecipitation with an anti-KLF4 antibody. Immunocomplexes were detected with enhanced chemiluminescence (ECL; PerkinElmer Life Sciences).

p53 promoter [3] = test: p53 promoter-Luc reporter assay in ZR-75-1 cells; format: cell-based, human
Method: FIG. 4A is a bar graph (left) and a series of photographs of western blots (right) depicting the suppression of p53 gene transcription by MUC1. Bar graph, Left: ZR-75-1/MUC1siRNA cells were transfected with the −2400-p53-Luc reporter or the −320-p53-Luc reporter construct. The X-axis indicates the amount of MUC1-CD DNA (and a control LacZ expression plasmid) in μg (“μg MUC1-CD) also transfected into each cell. the indicated amounts of MUC1-CD. At 40 h after transfection, lysates were prepared from the transfected cells and assayed for luciferase activity. The Y-axis represents the relative luciferase activity expressed as fold activation (mean±SD of 3 separate experiments) compared to that obtained with empty vector-transfected cells (assigned a value of 1). Western blots, right: ZR-75-1/MUC1siRNA cells were transfected with the indicated amounts (in μg) of pCMV or pCMV-MUC1-CD vectors. At 24 hours after transfection, lysates from the indicated ZR-75-1/MUC1siRNA cells were immunoblotted (“IB”) with antibodies specific for p53, MUC1-C, or β-actin (as indicated below each photograph). […]
FIG. 4B is a pair of bar graphs. […] The Y-axis represents the relative luciferase activity expressed as the fold activation (mean±SD of 3 separate experiments) compared to that obtained with empty vector-transfected cells (assigned a value of 1). […]

binding of [35S]-labeled KLF4 to GST fusion protein (KLF4): not
Molecule: MUC1-CD(47-72): GST fusion of MUC1-CD deletion fragment, amino acids 47-72 (EKVSAGNGGSSLSYTNPAVAAASANL; also: GST fusion (side not given here); listed as Homo sapiens)

binding of [35S]-labeled KLF4 to GST fusion protein (KLF4): binds
B1: MUC1-CD(1-72): GST fusion of the MUC1 cytoplasmic domain, amino acids 1-72 (SEQ ID NO:2) (protein)
chain: CQCRRKNYGQLDIFPARDTYHPMSEYPTYHTHGRYVPPSSTDRSPYEKVSAGNGGSSLSYTNPAVAAASANL
modifications: left off: a dimerising Fc or GST

B2: MUC1-CD: MUC1 cytoplasmic domain expressed in cells by transfection of the pCMV-MUC1-CD vector (protein, listed as Homo sapiens)
chain: B1 chain
effect on KLF4-mediated suppression of p53 transcription (luciferase) (p53 promoter [1]): potentiates KLF4-mediated suppression of p53 transcription | p53 levels (immunoblot) [2]: downregulates p53 levels | p53 gene transcription (luciferase activity) (p53 promoter [3]; ZR-75-1/MUC1siRNA cells, −2400-p53-Luc or −320-p53-Luc, 40 h after transfection): suppresses p53 gene transcription | effect on KLF4-mediated suppression of p53 transcription (luciferase) (p53 promoter [3]; ZR-75-1 cells, −2400-p53-Luc, 0.5 μg MUC1-CD, increasing amounts of KLF4): potentiates KLF4-mediated suppression of p53 transcription
